# Target: GST-Rac1^QP (UniProt P63000)
# Experiment: pull-down
substance,measurement,value
WRC^Y967A (from UniProt Q7L576 1-1253; Q9Y2A7 1-1128; Q92558 1-230; Q9NYB9 1-158; Q8WUW1 1-75) (complex),Kd,2000 nM
